Experimental findings from patent US20240309095A1 (Incyte, published 2024) are described below.

Experiment [1] deals with T1, human B7-H4 (purified monomeric recombinant human protein, ACRO biosystems) (human, UniProt Q7Z7D3 29-258, limits assumed, chemically biotinylated (EZ-Link NHS-LC-Biotin) in the yeast display and competition experiments; non-biotinylated in SPR).
T1 construct: Bought recombinant monomeric protein; also called B7x; B7S1
T1 sequence: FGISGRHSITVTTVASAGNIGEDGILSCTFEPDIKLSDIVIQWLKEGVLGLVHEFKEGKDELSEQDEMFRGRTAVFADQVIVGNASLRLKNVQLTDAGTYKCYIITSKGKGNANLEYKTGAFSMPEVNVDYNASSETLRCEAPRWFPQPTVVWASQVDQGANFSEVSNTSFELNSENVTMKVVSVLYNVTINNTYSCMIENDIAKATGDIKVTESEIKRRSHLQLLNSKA
The experiment can be described thus: SPR (Carterra LSA); scFv-Fc captured on anti-human IgG Fc, antigen injected. The procedure: (§1) Finally, the affinity of the 24 clones was determined using high-throughput surface plasmon resonance (SPR). The supernatants were arrayed by non-covalent capture in a medium-density SPR chip previously coupled with an anti-human polyclonal antibody and (at least 4 replicates per clone). Non-biotinylated antigen was used for all affinity measurements and sensorgrams were fitted using a pseudo-first-order kinetic model (Lundström 1994). […] In fact, it is notable that the off rates for some of the tested antibodies are probably better than 10⁻⁵ (Table 7), as indicated by the bunching of matured antibodies at that value (Table 7)—such slow off rates are challenging to accurately measure using SPR. No affinity difference was observed between clones coming from one combo library versus the other.
(§2) The scFv from the final population (round 3, combo libraries) was bulk cloned into a yeast expression vector containing a human IgG1 Fc region to be expressed in the scFv-Fc format. For this, the scFv region was amplified by PCR, digested with BssHII and NheI restriction enzyme (New England Biolabs), and cloned into the pDNL9 vector, 92 clones were analyzed by Sanger sequencing and 24 of these plus the parental were expressed using S. cerevisiae strain YVH10 (ATCC MYA-4940). scFv-Fc fusions were expressed for 72 h at 20° C. in the presence of galactose. The Carterra LSA surface resonance system was used for the affinity measurements. Briefly, anti-Human IgG Fc (Southern Biotech, #2048-01) was covalently coupled to an HC30M chip following the manufacturer's protocols. Crude yeast supernatants containing the scFv-Fc fusions were arrayed on the chip.

In experiment [2] the target is T1, human B7-H4 (purified monomeric …). The experiment can be described thus: SPR (Carterra LSA); scFv-Fc captured on anti-human IgG Fc, antigen injected; asterisk: reached minimum allowed dissociation rate; asterisk: kd at the minimum value allowed (10^-5 s^-1). The procedure: as §1
The scFv from the final population (round 3, combo libraries) was bulk cloned into a yeast expression vector containing a human IgG1 Fc region to be expressed in the scFv-Fc format. For this, the scFv region was amplified by PCR, digested with BssHII and NheI restriction enzyme (New England Biolabs), and cloned into the pDNL9 vector, 92 clones were analyzed by Sanger sequencing and 24 of these plus the parental were expressed using S. cerevisiae strain YVH10 (ATCC MYA-4940). scFv-Fc fusions were expressed for 72 h at 20° C. in the presence of galactose. […]

Experiment [3] has the same target. The experiment is described as follows: SPR (Carterra LSA); scFv-Fc captured on anti-human IgG Fc, antigen injected; asterisk: reached minimum allowed dissociation rate. As to the method:
as §1, §2

Residue numbers refer to the chain shown, from its start.

The term Kd denotes the concentration at which binding is half-saturated. For orientation: kon means the rate constant with which the complex forms. The koff is the rate constant with which the complex falls apart.

B1: A06 scFv-Fc (scFv, V domains shown)
VH: EVQLVESGGGVVQPGRSLRLSCAASGFTFGDRAMNWVRQAPGKGLEWVSAISGTGATTYYADSVKGRFTISRDNSKNTLYLQMNSLRAEDTAVYYCARKRWYGMDVWGQGTTVTVSS
VL: SYELTQPPSVSVAPGKTARITCGGNNIVTKSVHWYQQKPGQAPVLVVYDDSDRPSGIPERFSGSNSGNTATLTISRVEAGDEADYYCQVWDRGMIFGTGTKLTVL
notes: Tested as scFv-Fc fusion (human IgG1 Fc, vector pDNL9) in crude yeast supernatant; Combo 1 library
As for B1, in experiment [1], the KD fold-improvement amounted to 221 fold over parental, the Kd is at most 34 pM and the kon was found to be 320000 M⁻¹ s⁻¹. Besides, in experiment [2], the koff was at most 1e-05 s⁻¹.

B2: Parental (H6.1) scFv-Fc (scFv, V domains shown)
VH: B1 VH with G30S, D31S, R32Y, A33S, T54S, A56G, T57S
VL: SYELTQPPSVSVAPGKTARITCGGNNIGSKSVHWYQQKPGQAPVLVVYDDSDRPSGIPERFSGSNSGNTATLTISRVEAGDEADYYCQVWDSRTYVFGTGTKLTVL
notes: Expressed with the 24 clones as scFv-Fc fusion (human IgG1 Fc) in yeast for SPR; also called parental antibody; parental molecule
With B2, in experiment [1], the KD fold-improvement was found to be 1 fold over parental, the dissociation constant Kd worked out at 7430 pM, the koff stood at 0.0033 s⁻¹ and the kon was found to be 450000 M⁻¹ s⁻¹.

B3: B08 scFv-Fc (scFv, V domains shown)
VH: B1 VH with G30S, G53A, T54S, T57S, T58R
VL: B1 VL with V28G, T29S
notes: Tested as scFv-Fc fusion (human IgG1 Fc, vector pDNL9) in crude yeast supernatant; Combo 2 library
On to B3, for which, in experiment [1], the KD fold-improvement came out at 64 fold over parental, the Kd worked out at 117 pM, the koff was 1.8e-05 s⁻¹ and the kon came to 150000 M⁻¹ s⁻¹.

B4: A12 scFv-Fc (scFv, V domains shown)
VH: B1 VH with G30D, D31N, G53S, T54S, A56S, T58M
VL: B2 VL
notes: as for B3
For the molecule B4, in experiment [1], the KD fold-improvement came to 53 fold over parental, the Kd is 139 pM, the koff was 3.2e-05 s⁻¹ and the kon is 230000 M⁻¹ s⁻¹.

B5: B11 scFv-Fc (scFv, V domains shown)
VH: B1 VH with G30T, D31S, T54S, T58A
VL: B1 VL with V28G, T29S
notes: as for B3
As to B5, in experiment [1], the KD fold-improvement came to 109 fold over parental, the Kd came out at 68 pM, the koff came to 1.2e-05 s⁻¹ and the kon stood at 180000 M⁻¹ s⁻¹.

B6: B01 scFv-Fc (scFv, V domains shown)
VH: B1 VH with G30S, G53Y, T54E, A56R, T58Q
VL: B2 VL with S29V
notes: as for B1
In the case of B6, in experiment [1], the KD fold-improvement was determined as 231 fold over parental, the Kd was at most 32 pM and the kon stood at 310000 M⁻¹ s⁻¹. The koff in experiment [3] was at most 1e-05 s⁻¹.

B7: B10 scFv-Fc (scFv, V domains shown)
VH: B1 VH with G30S, D31T, A56D
VL: B2 VL with D91G, S92R, R93Y, T94Q, Y95M, V96I
notes: as for B3
As for B7, in experiment [1], the KD fold-improvement was 64 fold over parental, the Kd came out at 116 pM, the koff came out at 2.9e-05 s⁻¹ and the kon came to 260000 M⁻¹ s⁻¹.

B8: A07 scFv-Fc (scFv, V domains shown)
VH: B1 VH with G30S, D31S, A33S, T54S, A56S, T58V
VL: B2 VL
notes: as for B3
Regarding B8, in experiment [1], the KD fold-improvement was 27 fold over parental, the dissociation constant (Kd) was found to be 277 pM, the koff amounted to 4.7e-05 s⁻¹ and the kon turned out to be 170000 M⁻¹ s⁻¹.

B9: G05 scFv-Fc (scFv, V domains shown)
VH: B1 VH with G30S, D31S, A33S, T54S, A56S, T58V
VL: B2 VL with N26K, I27L, S29D, S31W, D49E, S51V
notes: Tested as scFv-Fc fusion (human IgG1 Fc, vector pDNL9) in crude yeast supernatant; Combo 1 library; also called G5
In the case of B9, in experiment [1], the KD fold-improvement was determined as 119 fold over parental, the Kd was at most 63 pM and the on-rate constant (kon) was 160000 M⁻¹ s⁻¹. The koff in experiment [3] is at most 1e-05 s⁻¹.

B10: B05 scFv-Fc (scFv, V domains shown)
VH: B1 VH with F27L, G30S, D31S
VL: B1 VL with V28G, T29S, S31M
notes: as for B1
Regarding B10, in experiment [1], the KD fold-improvement was determined as 109 fold over parental, the Kd was at most 68 pM and the kon is 150000 M⁻¹ s⁻¹. The koff in experiment [3] is at most 1e-05 s⁻¹.

B11: B02 scFv-Fc (scFv, V domains shown)
VH: B1 VH with G30S, D31S, A33S, T54S, A56S, T58V
VL: B2 VL with S29V, P54S, S55P
notes: as for B1
As for B11, in experiment [1], the KD fold-improvement turned out to be 127 fold over parental, the Kd turned out to be 59 pM, the koff came out at 1.1e-05 s⁻¹ and the kon worked out at 180000 M⁻¹ s⁻¹.

B12: B12 scFv-Fc (scFv, V domains shown)
VH: B1 VH with G30S, T57S
VL: B1 VL with V28G, T29S
notes: as for B3
With B12, in experiment [1], the KD fold-improvement turned out to be 89 fold over parental, the dissociation constant Kd amounted to 84 pM, the koff came to 2.8e-05 s⁻¹ and the kon is 340000 M⁻¹ s⁻¹.

B13: B09 scFv-Fc (scFv, V domains shown)
VH: B1 VH with F29Y, G30S, D31S, G53S, T54S, A56T
VL: B1 VL with V28G, T29S
notes: as for B3
For B13, in experiment [1], the KD fold-improvement was found to be 63 fold over parental, the Kd is 118 pM, the koff worked out at 2.5e-05 s⁻¹ and the kon is 210000 M⁻¹ s⁻¹.
